Measurements taken from publication PMC3950705.

T1: hRev1 330-833 (core polymerase domain) (human, UniProt Q9UBZ9 330-833)
T1 sequence: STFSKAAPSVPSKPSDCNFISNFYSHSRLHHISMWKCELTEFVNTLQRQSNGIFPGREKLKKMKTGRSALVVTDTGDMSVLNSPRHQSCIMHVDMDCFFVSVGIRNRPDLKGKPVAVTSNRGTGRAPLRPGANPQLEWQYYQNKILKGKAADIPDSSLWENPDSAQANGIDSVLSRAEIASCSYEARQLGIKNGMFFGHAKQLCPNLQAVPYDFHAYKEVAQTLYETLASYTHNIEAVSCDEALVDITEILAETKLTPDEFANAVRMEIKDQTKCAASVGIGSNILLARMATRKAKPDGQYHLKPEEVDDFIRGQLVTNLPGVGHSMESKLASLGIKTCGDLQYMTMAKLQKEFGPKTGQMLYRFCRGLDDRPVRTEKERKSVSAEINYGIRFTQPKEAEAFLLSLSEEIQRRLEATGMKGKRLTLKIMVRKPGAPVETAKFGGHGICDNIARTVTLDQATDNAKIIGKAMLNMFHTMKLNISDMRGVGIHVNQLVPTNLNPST

B1: FAM/Dab 18/42-mer G4 DNA (mixed)
DNA 1: TGAGGGTGGGTAGGGTGGGTGCGTCTGCGGCTGGCTCGAGGC
DNA 2: GCCTCGAGCCAGCCGCAG
B2: 23/42-mer Myc2345 G14/23T primer-template (mixed)
DNA 1: TGAGGGTGGGTAGGGTGGGTGCGTCTGCGGCTGGCTCGAGGC
DNA 2: GCCTCGAGCCAGCCGCAGACGCA
B3: 11/28-mer primer-template G4 DNA (mixed)
DNA 1: TGGGTGGGTAGGGTGGGTAGGGGAGGAT
DNA 2: ATCCTCCCCTA
B4: 11/28-mer primer-template non-G4 DNA (mixed)
DNA 1: TATGTGACTATGCTGGGTAGGGGAGGAT
DNA 2: ATCCTCCCCTA

Tests used:
[1] = biological target: T1, hRev1 330-833 (core polymerase domain); assay: stopped-flow fluorescence quenching
[2] = biological target: T1, hRev1 330-833 (core polymerase domain); assay: stopped-flow fluorescence quenching; remark: listed apart in the source
[3] = biological target: T1, hRev1 330-833 (core polymerase domain); assay: DMS footprinting
[4] = biological target: T1, hRev1 330-833 (core polymerase domain); assay: fluorescence polarization

Binder	Kd [4]	also measured
B1		binding result [1]: binds
TGAGGGTGGGTAGGGTGGGTGCGTCTGCGGCTGGCTCGAGGC (structured_DNA) [FAM/Dab 42-mer ss-G4 DNA (Myc2345 G14/23T)]		binding result [2]: binds
B2		binding result [3]: binds
B3	0.0084 ± 0.0025 µM	
B4	0.129 ± 0.02 µM	
TATGTGACTATGCTGGGTAGGGGAGGAT (ssDNA) [ss-non-G4 DNA 28-mer]	0.0657 ± 0.0088 µM	
TGGGTGGGTAGGGTGGGTAGGGGAGGAT (structured_DNA) [ss-G4 DNA 28-mer]	0.0157 ± 0.0087 µM	
